Assay results from article PMC2946933.

Biological target: Hfq K56A K56A (UniProt P0A6X3)
Test: SPR
Conditions: EMSA: 50 mM Tris-HCl pH 7.5, 100 mM KCl, 10 mM MgCl2, room temperature, SPR: same buffer, 25 C, Tb footprinting: 50 mM Tris-HCl pH 8.0, 100 mM NaCl

## GCAGCGUUACAUUCCCAUCCACUGGGGAAAGACGCGGCGCUGAUUGGUGAAGUGGUGGAACGUAAAGGUGUUCGUCUUGCCGGUCUGUAUGGCGUGAAACGAACCCUCGAUUUACCACACGCCGAACCGCUUCCGCGUAUAUGCUAAUAAAAUUCUAAAUCUCCUAUAGUUAGUCAAUGACCUUUUGCACCGCUUUGCGGUGCUUUCCUGGAAGAACAAAAUGUCAUAUACACCGAUGAGUGAUCUCGGACAACAAGGGUUGUUCGACAUCACUCGGACAAAUAUUGGAUCCGCUCGG [fhlA220 mRNA]
  Kd: 3 nM
